These results are taken from US20230257454A1 (STAIDSON BEIJING BIOPHARMACEUTICALS, published 2023).

For orientation: EC50 (read off the curve) means the concentration that produces a half-maximal response. Low values mean an effect from little substance, high ones a need for much substance.

Experiment [1] has as its target T1, human C5a (source not stated) (human, UniProt P01031 678-751).
T1 sequence: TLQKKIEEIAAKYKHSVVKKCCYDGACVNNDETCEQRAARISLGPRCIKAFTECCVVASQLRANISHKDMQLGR
Nature of the experiment: cell-based or functional assay.

In experiment [2] the target is T2, native full-length human complement component C5 (human, UniProt P01031 19-673; P01031 678-1676).
T2 construct: mature; The native protein has two disulfide-linked chains (alpha and beta) made from one precursor; also called human native C5
T2 sequence (P01031 19-673 limits assumed, one chain of several): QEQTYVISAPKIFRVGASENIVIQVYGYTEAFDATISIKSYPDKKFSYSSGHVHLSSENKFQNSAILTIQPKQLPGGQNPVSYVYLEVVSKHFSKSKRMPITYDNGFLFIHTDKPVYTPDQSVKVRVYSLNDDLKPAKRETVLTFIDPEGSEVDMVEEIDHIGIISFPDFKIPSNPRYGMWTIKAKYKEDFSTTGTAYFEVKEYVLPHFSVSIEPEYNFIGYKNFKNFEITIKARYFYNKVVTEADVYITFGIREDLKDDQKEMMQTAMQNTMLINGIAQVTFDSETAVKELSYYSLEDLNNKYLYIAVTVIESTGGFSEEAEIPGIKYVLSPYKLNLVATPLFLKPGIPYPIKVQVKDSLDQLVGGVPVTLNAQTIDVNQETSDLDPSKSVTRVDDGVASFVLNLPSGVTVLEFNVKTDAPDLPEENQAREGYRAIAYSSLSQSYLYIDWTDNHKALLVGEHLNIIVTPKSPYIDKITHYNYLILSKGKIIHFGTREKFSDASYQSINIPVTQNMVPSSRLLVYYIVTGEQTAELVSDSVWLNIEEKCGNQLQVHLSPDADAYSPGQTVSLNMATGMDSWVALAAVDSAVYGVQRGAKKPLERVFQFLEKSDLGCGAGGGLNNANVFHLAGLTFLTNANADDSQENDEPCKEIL
The experiment in a line: ELISA, plate coated with human native C5, full-length antibody titrated, OD410. A general note: In an ELISA, binding on a coated surface is turned into a signal by an enzyme label.

The target in a further experiment is T3, human endogenous C5a (human, UniProt P01031 678-751, limits assumed).
T3 sequence: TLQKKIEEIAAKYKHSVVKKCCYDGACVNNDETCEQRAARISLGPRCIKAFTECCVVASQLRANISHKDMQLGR
The experiment in a line: cell-based or functional assay.

The target of a further experiment is T4, C5a-L72A.
T4 single chain: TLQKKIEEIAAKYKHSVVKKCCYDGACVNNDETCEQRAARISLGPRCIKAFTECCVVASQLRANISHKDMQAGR
Nature of the experiment: ELISA on the coated C5a protein, antibody titrated, OD410.

For a further experiment, the target named is T5, C5a-D69A.
T5 single chain: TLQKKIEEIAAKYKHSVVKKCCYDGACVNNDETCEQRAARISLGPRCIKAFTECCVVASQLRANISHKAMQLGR
The description is as above.

The next experiment addresses T6, C5a-S66A.
T6 single chain: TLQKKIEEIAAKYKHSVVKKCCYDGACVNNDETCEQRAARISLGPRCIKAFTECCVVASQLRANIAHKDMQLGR
Described as above.

In the next experiment the target is T7, C5a-L2A.
T7 single chain: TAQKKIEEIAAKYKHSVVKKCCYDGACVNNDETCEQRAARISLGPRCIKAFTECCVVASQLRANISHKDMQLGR
The experiment is described as above.

Another experiment concerns the target T8, C5a-K5A.
T8 single chain: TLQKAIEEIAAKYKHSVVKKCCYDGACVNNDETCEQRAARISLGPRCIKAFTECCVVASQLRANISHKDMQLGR
The description is as above.

For a further experiment, the target named is T9, C5a-E7A.
T9 single chain: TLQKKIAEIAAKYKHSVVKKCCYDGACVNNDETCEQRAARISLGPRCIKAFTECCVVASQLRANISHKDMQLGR
The experiment is described as above.

The target in a further experiment is T10, C5a-T1A.
T10 single chain: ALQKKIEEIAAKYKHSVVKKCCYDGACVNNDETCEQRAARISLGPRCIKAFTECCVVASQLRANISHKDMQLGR
The description is as above.

Another experiment has as its target T11, C5a-E8A.
T11 single chain: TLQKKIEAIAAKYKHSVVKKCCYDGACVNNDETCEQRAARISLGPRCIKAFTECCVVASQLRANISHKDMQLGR
Described as above.

Another experiment concerns the target T12, C5a-K4A.
T12 single chain: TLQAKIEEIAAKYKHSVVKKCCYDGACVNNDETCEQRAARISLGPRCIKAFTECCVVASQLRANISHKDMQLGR
The experiment is described as above.

The target of a further experiment is T13, C5a-Q3A.
T13 single chain: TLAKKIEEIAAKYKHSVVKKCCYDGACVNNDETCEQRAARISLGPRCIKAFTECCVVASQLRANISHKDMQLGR
The description is as above.

A further experiment has as its target T14, C5a-K12A.
T14 single chain: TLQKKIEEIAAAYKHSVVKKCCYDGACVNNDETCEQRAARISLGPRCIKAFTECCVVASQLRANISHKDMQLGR
The description is as above.

B1: Cab42-IgG1 (antibody, V domains shown)
VH: EMQLVESGGGLVQPGGSLRLSCAASGFTFSDYYMQWVRQAPGKGPEWVGLIRNKAVGETTQYAASVKGRFTISRDDSKNSVYLQMNSLKTEDTAVYYCVSRAGPPGLSWGQGVLVTVSS
VL: DIVMTQSPLSLPVTPGEPASISCRSSQSLLASDAYNYIDWYLQKPGQSPQLLIYGGSNRASGVPDRFSGSGSGTDFTLKISRVEAEDVGVYFCLQHRALPPTFGQGTKLEIK
notes: Full-length human IgG1; It was biotinylated in the peptide-Fc ELISA
As to B1, the “ROS IC50” value in experiment [1] turned out to be 0.78 nM. Further, the “EC50 (read off the curve)” value in experiment [2] is approximately 10 ng/mL. In addition, the “eC5a IC50(nM), CD11b up-regulation on human neutrophils in whole blood” value in the experiment with human endogenous C5a turned out to be 2.05 nM. The “eC5a+50*C5 IC50(nM), CD11b up-regulation on human neutrophils in whole blood with 50 times more C5” value with human endogenous C5a amounted to 31 nM. The binding result with C5a-L72A, in the experiment with C5a-D69A, with C5a-S66A, with C5a-L2A, in the experiment with C5a-K5A and with C5a-E7A was “binds” each time. Further, the binding result with C5a-T1A, with C5a-E8A, with C5a-K4A, with C5a-Q3A and with C5a-K12A was “binds” each time.
